Laboratory results from US20250313634A1 (WUXI BIOLOGICS SHANGHAI, published 2025).

Legend:
Experiment in all cases: capture ELISA on coated 1.14.4; relative to silent alanine substitutions
[1] = target: T1, hPD-L1_ECD.His point mutant T37A (human, UniProt Q9NZQ7 19-238)
T1 construct: extracellular domain
Outline: (§1)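 Capture ELISA in which supernatant containing quantified PD-L1 alanine mutant was detected with HRP anti-His antibody. Absorbance was normalized to the average of control mutants. Epitope residues were called at binding fold change <0.55.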

[2] = target: T2, hPD-L1_ECD.His point mutant T180A (human, UniProt Q9NZQ7 19-238)
T2 construct: extracellular domain
T2 sequence (Q9NZQ7 19-238 T180A): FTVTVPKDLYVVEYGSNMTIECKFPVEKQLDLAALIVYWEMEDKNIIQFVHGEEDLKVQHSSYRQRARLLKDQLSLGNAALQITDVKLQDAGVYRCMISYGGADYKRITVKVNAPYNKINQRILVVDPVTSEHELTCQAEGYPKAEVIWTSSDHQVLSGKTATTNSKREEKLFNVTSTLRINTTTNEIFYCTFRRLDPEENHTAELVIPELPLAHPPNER
Outline: as §1

[3] = target: T3, hPD-L1_ECD.His point mutant G159A (human, UniProt Q9NZQ7 19-238)
T3 construct: extracellular domain
T3 sequence (Q9NZQ7 19-238 G159A): as the sequence (Q9NZQ7 19-238 T180A) above, with G141A, A162T counted along it
Outline: as §1

[4] = target: T4, hPD-L1_ECD.His point mutant V23A (human, UniProt Q9NZQ7 19-238)
T4 construct: extracellular domain
T4 sequence (Q9NZQ7 19-238 V23A): as the sequence (Q9NZQ7 19-238 T180A) above, with V5A, A162T counted along it
Outline: as §1

[5] = target: T5, hPD-L1_ECD.His point mutant A121G (human, UniProt Q9NZQ7 19-238)
T5 construct: extracellular domain
T5 sequence (Q9NZQ7 19-238 A121G): as the sequence (Q9NZQ7 19-238 T180A) above, with A103G, A162T counted along it
Outline: as §1

[6] = target: T6, hPD-L1_ECD.His point mutant P161A (human, UniProt Q9NZQ7 19-238)
T6 construct: extracellular domain
T6 sequence (Q9NZQ7 19-238 P161A): as the sequence (Q9NZQ7 19-238 T180A) above, with P143A, A162T counted along it
Outline: as §1

[7] = target: T7, hPD-L1_ECD.His point mutant Y56A (human, UniProt Q9NZQ7 19-238)
T7 construct: extracellular domain
T7 sequence (Q9NZQ7 19-238 Y56A): as the sequence (Q9NZQ7 19-238 T180A) above, with Y38A, A162T counted along it
Outline: as §1

[8] = target: T8, hPD-L1_ECD.His point mutant L48A (human, UniProt Q9NZQ7 19-238)
T8 construct: extracellular domain
T8 sequence (Q9NZQ7 19-238 L48A): as the sequence (Q9NZQ7 19-238 T180A) above, with L30A, A162T counted along it
Outline: as §1

[9] = target: T9, hPD-L1_ECD.His point mutant D90A (human, UniProt Q9NZQ7 19-238)
T9 construct: extracellular domain
T9 sequence (Q9NZQ7 19-238 D90A): as the sequence (Q9NZQ7 19-238 T180A) above, with D72A, A162T counted along it
Outline: as §1

[10] = target: T10, hPD-L1_ECD.His point mutant D73A (human, UniProt Q9NZQ7 19-238)
T10 construct: extracellular domain
T10 sequence (Q9NZQ7 19-238 D73A): as the sequence (Q9NZQ7 19-238 T180A) above, with D55A, A162T counted along it
Outline: as §1

[11] = target: T11, hPD-L1_ECD.His point mutant V68A (human, UniProt Q9NZQ7 19-238)
T11 construct: extracellular domain
T11 sequence (Q9NZQ7 19-238 V68A): as the sequence (Q9NZQ7 19-238 T180A) above, with V50A, A162T counted along it
Outline: as §1

[12] = target: T12, hPD-L1_ECD.His point mutant D103A (human, UniProt Q9NZQ7 19-238)
T12 construct: extracellular domain
T12 sequence (Q9NZQ7 19-238 D103A): as the sequence (Q9NZQ7 19-238 T180A) above, with D85A, A162T counted along it
Outline: as §1

[13] = target: T13, hPD-L1_ECD.His point mutant N131A (human, UniProt Q9NZQ7 19-238)
T13 construct: extracellular domain
T13 sequence (Q9NZQ7 19-238 N131A): as the sequence (Q9NZQ7 19-238 T180A) above, with N113A, A162T counted along it
Outline: as §1

[14] = target: T14, hPD-L1_ECD.His point mutant E188A (human, UniProt Q9NZQ7 19-238)
T14 construct: extracellular domain
T14 sequence (Q9NZQ7 19-238 E188A): as the sequence (Q9NZQ7 19-238 T180A) above, with A162T, E170A counted along it
Outline: as §1

[15] = target: T15, hPD-L1_ECD.His point mutant E72A (human, UniProt Q9NZQ7 19-238)
T15 construct: extracellular domain
T15 sequence (Q9NZQ7 19-238 E72A): as the sequence (Q9NZQ7 19-238 T180A) above, with E54A, A162T counted along it
Outline: as §1

[16] = target: T16, hPD-L1_ECD.His point mutant L175A (human, UniProt Q9NZQ7 19-238)
T16 construct: extracellular domain
T16 sequence (Q9NZQ7 19-238 L175A): as the sequence (Q9NZQ7 19-238 T180A) above, with L157A, A162T counted along it
Outline: as §1

[17] = target: T17, hPD-L1_ECD.His point mutant H69A (human, UniProt Q9NZQ7 19-238)
T17 construct: extracellular domain
T17 sequence (Q9NZQ7 19-238 H69A): as the sequence (Q9NZQ7 19-238 T180A) above, with H51A, A162T counted along it
Outline: as §1

[18] = target: T18, hPD-L1_ECD.His point mutant V29A (human, UniProt Q9NZQ7 19-238)
T18 construct: extracellular domain
T18 sequence (Q9NZQ7 19-238 V29A): as the sequence (Q9NZQ7 19-238 T180A) above, with V11A, A162T counted along it
Outline: as §1

[19] = target: T19, hPD-L1_ECD.His point mutant K89A (human, UniProt Q9NZQ7 19-238)
T19 construct: extracellular domain
T19 sequence (Q9NZQ7 19-238 K89A): as the sequence (Q9NZQ7 19-238 T180A) above, with K71A, A162T counted along it
Outline: as §1

[20] = target: T20, hPD-L1_ECD.His point mutant E58A (human, UniProt Q9NZQ7 19-238)
T20 construct: extracellular domain
T20 sequence (Q9NZQ7 19-238 E58A): as the sequence (Q9NZQ7 19-238 T180A) above, with E40A, A162T counted along it
Outline: as §1

[21] = target: T21, hPD-L1_ECD.His point mutant K124A (human, UniProt Q9NZQ7 19-238)
T21 construct: extracellular domain
T21 sequence (Q9NZQ7 19-238 K124A): as the sequence (Q9NZQ7 19-238 T180A) above, with K106A, A162T counted along it
Outline: as §1

[22] = target: T22, hPD-L1_ECD.His point mutant I199A (human, UniProt Q9NZQ7 19-238)
T22 construct: extracellular domain
T22 sequence (Q9NZQ7 19-238 I199A): as the sequence (Q9NZQ7 19-238 T180A) above, with A162T, I181A counted along it
Outline: as §1

[23] = target: T23, hPD-L1_ECD.His point mutant D26A (human, UniProt Q9NZQ7 19-238)
T23 construct: extracellular domain
T23 sequence (Q9NZQ7 19-238 D26A): as the sequence (Q9NZQ7 19-238 T180A) above, with D8A, A162T counted along it
Outline: as §1

[24] = target: T24, hPD-L1_ECD.His point mutant S93A (human, UniProt Q9NZQ7 19-238)
T24 construct: extracellular domain
T24 sequence (Q9NZQ7 19-238 S93A): as the sequence (Q9NZQ7 19-238 T180A) above, with S75A, A162T counted along it
Outline: as §1

[25] = target: T25, hPD-L1_ECD.His point mutant I64A (human, UniProt Q9NZQ7 19-238)
T25 construct: extracellular domain
T25 sequence (Q9NZQ7 19-238 I64A): as the sequence (Q9NZQ7 19-238 T180A) above, with I46A, A162T counted along it
Outline: as §1

[26] = target: T26, hPD-L1_ECD.His point mutant N236A (human, UniProt Q9NZQ7 19-238)
T26 construct: extracellular domain
T26 sequence (Q9NZQ7 19-238 N236A): as the sequence (Q9NZQ7 19-238 T180A) above, with A162T, N218A counted along it
Outline: as §1

T1 sequence (Q9NZQ7 19-238 T37A): as the sequence (Q9NZQ7 19-238 T180A) above, with T19A, A162T counted along it

B1: 1.14.4 (antibody, V domains shown)
VH: EVQLLESGGGLVQPGGSLRLSCAASGFTFSSYAMSWVRQAPGKGLEWVSGISGSGGFTYYADSVKGRFTISRDNSKNTLYLQMNSLRAEDTAVYYCAKPPRGYNYGPFDYWGQGTLVTVSS
VL: SYVLTQPPSVSVAPGQTARITCGGNNIGSKSVHWYQQKPGQAPVLVVYDDSDRPSGIPERFSGSNSGNTATLTISRVEAGDEADYYCQVWDSSSDHVVFGGGTKLTVL
notes: Fully human monoclonal antibody with a human constant region of IgG4 isotype
B1 showed a fold change [1] of 0.569 fold, a fold change [2] of 1 fold and a fold change [3] of 0.448 fold. For the same binder, the fold change [4] was 0.948 fold, the fold change [5] was 1.15 fold and the fold change [6] was 0.332 fold. For the same binder, the fold change [7] was 0.84 fold, the fold change [8] was 0.77 fold and the fold change [9] was 0.858 fold. It also gave a fold change [10] of 0.988 fold, a fold change [11] of 0.707 fold and a fold change [12] of 0.863 fold. The fold change [13] was 0.68 fold, the fold change [14] was 0.833 fold and the fold change [15] was 0.748 fold. It also gave a fold change [16] of 0.842 fold, a fold change [17] of 1.06 fold and a fold change [18] of 0.882 fold. The fold change [19] was 0.913 fold, the fold change [20] was 0.399 fold and the fold change [21] was 1.06 fold. It also gave a fold change [22] of 0.848 fold, a fold change [23] of 0.963 fold and a fold change [24] of 1.15 fold. It also gave a fold change [25] of 0.716 fold and a fold change [26] of 0.848 fold.
